Patent US6531296 (UNIVERSITY OF NORTH CAROLINA AT CHAPEL HILL, dated 2003)
Each block holds one binder with its values, some of them ahead of it.

Target: T1, Src protein (p60^src), in vitro translated (UniProt P12931 2-536, limits assumed)
T1 construct: also called c-Src
Test: in vitro translated Src on Rb-GST fusion proteins; data not shown
Description: The same procedure was followed for Rb in vitro binding assays, except that the Rb-GST fusion proteins were incubated in the in vitro translated forms of Rak in NP-40 buffer containing 0.5% fraction V bovine serum albumin (Boehringer Mannheim). After three washes with the same buffer, bound proteins were analyzed by SDS-PAGE and detected by autoradiography. Rak was in vitro translated using the TnT-coupled transcription/translation system (Promega) with 2 ug of the pAlt-Rak plasmid. The Rak (1–152) construct was prepared by digesting the pAlt-Rak plasmid with EcoRI to obtain the 5' EcoRI fragment of Rak.
An in vitro binding reaction was then used to further identify the essential components for the Rak-Rb interaction. In vitro translated Rak was incubated with two Rb-GST fusion proteins, where one encoded amino acids 379–928, spanning the A/B pocket and carboxy-terminus (RbABC), while the other fusion protein encoded amino acids 780–928, and represented only the carboxy-terminus (RbC). The in vitro translated full-length Rak protein bound efficiently to the RbABC fusion protein, and approximately 5-fold less to the RbC protein (FIG. 5B, upper panel). […] As a control, the Src protein was in vitro translated and subjected to the same binding reaction, and no binding of Src to any portion of Rb was detected (data not shown).

binding result: no binding
B1: GST-RbC, Rb fusion protein encoding amino acids 780-928 (COOH-terminal domain only) (other, UniProt P06400 780-928, looked up)
chain: SPIPHIPRSPYKFPSSPLRIPGGNIYISPLKSPYKISEGLPTPTKMTPRSRILVSIGESFGTSEKFQKINQMVCNSDRVLKRSAEGSNPPKPLKKLRFDIEGSDEADGSKHLPGESKFQQKLAEMTSTRTRMQKQKMNDSMDTSNKEEK
notes: range 780-928; GST fusion prepared like the Rak fusions; also called RbC protein; Rb-GST fusion protein; not shown: Glutathione S-transferase encoded by the pGEX-4T plasmid (Pharmacia)

binding result: no binding
B2: GST-RbABC, Rb fusion protein encoding amino acids 379-928 (A/B pocket region and COOH-terminal domain) (other, UniProt P06400 379-928, looked up)
chain: MNTIQQLMMILNSASDQPSENLISYFNNCTVNPKESILKRVKDIGYIFKEKFAKAVGQGCVEIGSQRYKLGVRLYYRVMESMLKSEEERLSIQNFSKLLNDNIFHMSLLACALEVVMATYSRSTSQNLDSGTDLSFPWILNVLNLKAFDFYKVIESFIKAEGNLTREMIKHLERCEHRIMESLAWLSDSPLFDLIKQSKDREGPTDHLESACPLNLPLQNNHTAADMYLSPVRSPKKKGSTTRVNSTANAETQATSAFQTQKPLKSTSLSLFYKKVYRLAYLRLNTLCERLLSEHPELEHIIWTLFQHTLQNEYELMRDRHLDQIMMCSMYGICKVKNIDLKFKIIVTAYKDLPHAVQETFKRVLIKEEEYDSIIVFYNSVFMQRLKTNILQYASTRPPTLSPIPHIPRSPYKFPSSPLRIPGGNIYISPLKSPYKISEGLPTPTKMTPRSRILVSIGESFGTSEKFQKINQMVCNSDRVLKRSAEGSNPPKPLKKLRFDIEGSDEADGSKHLPGESKFQQKLAEMTSTRTRMQKQKMNDSMDTSNKEEK
notes: range 379-928; GST fusion prepared like the Rak fusions; also called RbABC fusion protein; Rb-GST fusion protein; not shown: Glutathione S-transferase encoded by the pGEX-4T plasmid (Pharmacia)
